From patent US20230104578A1, “ANTI-ADRENOMEDULLIN (ADM) ANTIBODY OR ANTI-ADM ANTIBODY FRAGMENT OR ANTI-ADM NON-IG SCAFFOLD FOR USE IN THERAPY OR PREVENTION OF SHOCK” (ADRENOMED AG, priority 2020, published 2023) come the findings set out here.

Experiment [1] addresses human recombinant adrenomedullin receptor (CRLR+RAMP3) (human).
Experiment [2] shares this target. This is another data set of the same source.

Take human ADM 22-52 (peptide): the IC50 (read off the curve); cAMP (HTRF) induced by 5.63 nM hADM, % inhibition in experiment [1] amounted to 300 nM. The IC50 (read off the curve); cAMP (HTRF) induced by 0.67 nM mADM, % inhibition in experiment [2] stood at 3000 nM.
